Assay results from patent publication KR20230117039A (dated 2023).

T1: N-terminally biotinylated hNinj1 (2-56) peptide (human, UniProt Q92982 2-56, N-terminal biotin)
T1 construct: range 2-56; also called hNinj1 펩타이드
T1 sequence (peptide, looked up): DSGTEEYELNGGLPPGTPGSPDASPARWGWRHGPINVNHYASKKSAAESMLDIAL

T2: hNinj1 extracellular domain peptide with added C-terminal lysine, biotinylated (human)
T2 sequence (peptide, biotin on the added C-terminal lysine (K57)): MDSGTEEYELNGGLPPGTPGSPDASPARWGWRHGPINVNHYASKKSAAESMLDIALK

T3: NINJ1 peptide (analyte of the sandwich ELISA) (UniProt Q92982 1-56, limits assumed)
T3 construct: also called Ninj1 펩타이드; NINJ1 펩타이드
T3 sequence (peptide, looked up): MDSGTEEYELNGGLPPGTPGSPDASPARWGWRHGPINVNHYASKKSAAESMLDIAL

B1: C11, scFv clone of the VH3VL1 synthetic human antibody library (scFv)
chain: EVQLLESGGGLVQPGGSLRLSCAASGFTFSSYGISWVRQAPGKGLEWVSAISGSGGSTYYADSVKGRFTISRDNSKNTLYLQMNSLRAEDTAVYYCARTPIDADAFDYWGQGTLVTVSSGGGGSGGGGSGGGGSQSVLTQPPSASGTPGQRVTISCTGNIGNIASNYVQWYQQLPGTAPKLLIYDTYNKHRGVPDRFSGSKSGTSASLAISGLRSEDEADYYCGAWDDSLSGPVFGGGTKLTVLGQAGQHHHHHHGAYPYDVPDYAS
B2: C12, Fab clone of the rabbit immune library (Fab, V domains shown)
VH: QEQLKETGGGLVQPGGSLKLSCKASGIDFNTYTVSWVRQAPGKGLELIGYVDPVFDDTYYATWVNGRFTISSHNAQNTVYLQLNSLTAADTATYFCARLGAYDSSSGYPNFSLWGPGTLVTISS
VL: ELTQPPSLSASLDTTARLTCTLSTDYSVGEYPLVWLQQVPGRPPRYLLGYHTDDIKHQGPGVPSRFSGSKDHSTNTGVLTISGLQPEDEADYYCAVGVVFGGGTQLTVTG
B3: C12 anti-Ninj1 IgG antibody (antibody, V domains shown)
VH: B2 VH
VL: B2 VL
notes: Tested as IgG made in ExpiCHO; also called C12 IgG; 항 C12 Ninj1 항체
B4: G2, Fab clone of the rabbit immune library (Example 1.3.3) (Fab, V domains shown)
VH: B2 VH
VL: B2 VL
B5: E6, scFv clone of the VH3VL1 synthetic human antibody library (scFv)
chain: EVQLLESGGGLVQPGGSLRLSCAASGFTFSSYAIHWVRQAPGKGLEWVSAISGSGGSTYYADSVKGRFTISRNNSKNTLYLQVNSLRAEDTAVYYCARNPTYGGFDIWGQGTLVTVSSGGGGSGGGGSGGGGSQSVLTQPPSASGTPGQRVTISCSGSSSNIGSNYVYWYQQLPGTAPKLLIYRNNQRPSGVPDRFSGSKSGTSASLAISGLRSEDEADYYCGAWDDSLSSPVFGGGTKLTVLGQAGQHHHHHHGAYPYDVPDYAS
B6: B3, scFv clone of the VH3VL1 synthetic human antibody library (scFv)
chain: EVQLLESGGGLVQPGGSLRLSCAASGFTFSDYDMSWVRQAPGKGLEWVSGISSDNGSTYYADSVKGRFTISRDNSKNTLYLQMNSLRAEDTAVYYCARAAITCNNEWCYYYDAMDVWGQGTLVTVSSGGGGSGGGGSGGGGSQSVLTQPPSASGTPGQRVTISCTGPSSNIGNNDVSWYQQLPGTAPKLLIYANSNRPSGVSDRFSGSKSGTSASLAISGLRSEDEADYYCGAWDDSLNGYVFGGGTKLTVLGQAGQHHHHHHGAYPYDVPDYAS

Tests used:
[1] = biological target: T1, N-terminally biotinylated hNinj1 (2-56) …; experiment: scFv clone ELISA screen
[2] = biological target: T2, hNinj1 extracellular domain peptide with added C-terminal lysine, biotinylated (human); experiment: clone ELISA screen
[3] = biological target: T3, NINJ1 peptide (analyte of the sandwich …); experiment: sandwich ELISA, NINJ1 titrated

Row | Binder | ELISA ratio hNinj1/control [1] | ELISA ratio hNinj1/control [2] | also measured
1 | B1 | 6.18 | – | –
2 | B2 | – | 5.09 | –
3 | B3 | – | – | EC50 [3]: ~0.03 µg/mL
4 | B4 | – | 10.6 | –
5 | B5 | 5.62 | – | –
6 | B6 | 5.12 | – | –
